Measured values published in patent publication US20250281573A1 (GENEROATH, published 2025).

Target: T1, TRAF2 (UniProt Q12933 1-501, limits assumed)
T1 sequence (looked up): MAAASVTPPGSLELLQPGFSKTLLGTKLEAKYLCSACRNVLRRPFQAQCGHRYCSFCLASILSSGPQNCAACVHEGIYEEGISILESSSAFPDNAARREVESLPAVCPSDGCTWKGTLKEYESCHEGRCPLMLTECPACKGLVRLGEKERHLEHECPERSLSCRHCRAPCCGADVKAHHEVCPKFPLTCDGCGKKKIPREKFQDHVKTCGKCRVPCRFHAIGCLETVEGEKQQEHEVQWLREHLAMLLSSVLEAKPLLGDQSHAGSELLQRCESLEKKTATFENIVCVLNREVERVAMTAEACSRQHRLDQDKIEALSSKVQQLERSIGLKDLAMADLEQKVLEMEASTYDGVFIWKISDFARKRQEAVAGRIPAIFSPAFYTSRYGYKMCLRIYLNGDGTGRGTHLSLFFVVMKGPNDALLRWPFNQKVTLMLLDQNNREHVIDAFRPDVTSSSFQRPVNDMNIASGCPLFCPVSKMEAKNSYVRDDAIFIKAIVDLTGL
Experiment: TRAF2 immunoprecipitation from transfected HEK293 cells, anti-Myc immunoblot (FIG. 9A)
Description: To understand how DX2 compromises the apoptotic activity of TNF-a signaling, we evaluated the ability of DX2 to compete with AIMP2 for the interaction with TRAF2 and to affect NF-kB-dependent transcriptional activity. For the co-immunoprecipitation assay, HEK293 cells were transfected with 0, 1 or 2 μg of Myc-tagged DX2 or AIMP2 expression plasmid (FIG. 9A). The expression of endogenous (Endo) and exogenous (Exo) AIMP2 and DX2 was confirmed by immunoblotting of whole cell lysates (WCL) with anti-AIMP2 antibody. TRAF2 was immunoprecipitated with its specific antibody and AIMP2 or DX2 bound to TRAF2 were detected with anti-Myc antibody.

B1: Myc-tagged DX2 (other)
chain: MPMYQVKPYHGGGAPLRVELPTCMYRLPNVHGRSYGPAPGAGHVQDYGALKDIVINANPASPPLSLLVLHRLLCEHFRVLSTVHTHSSVKSVPENLLKCFGEQNKKQPRQDYQLGFTLIWKNVPKTQMKFSIQTMCPIEGEGNIARFLFSLFGQKHNAVNATLIDSWVDIAIFQLKEGSSKEKAAVFRSMNSALGKSPWLAGNELTVADVVLWSVLQQIGGCSVTVPANVQRWMRSCENLAPFNTALKLLK
notes: also called Myc-DX2; not shown: Myc tag
B1: binds.
